FireProtDB (doi:10.1002/pro.5560061014)

Conditions: Bacillus amyloliquefaciens, pH 7.4, Thermal, DSC, Sodium phosphate 50 mM, reversible: yes, whole UniProt chain shown

B1: Barstar wild type, P11540 (protein)
chain: MKKAVINGEQIRSISDLHQTLKKELALPEYYGENLDALWDCLTGWVEYPLVLEWRQFEQSKQLTENGAESVLQVFREAKAEGCDITIILS
heat capacity change of unfolding (25 °C): 1.27 kcal/mol/K | unfolding free energy (25 °C): 5.62 kcal/mol | Tm: 72.8 °C | heat capacity change of unfolding: 1.27 kcal/mol/K | unfolding enthalpy (calorimetric): 72.5 kcal/mol
